From article PMC10003157, “Structurally Different Yet Functionally Similar: Aptamers Specific for the Ebola Virus Soluble Glycoprotein and GP1,2 and Their Application in Electrochemical Sensing”

Key:
[1] = target: T1, EBOV sGP (Zaire ebolavirus (EBOV), UniProt P60170); assay: filter binding; conditions: protein: recombinant; tags: C-terminal thrombin site + 6xHis; chain copies: 2; label: 5' 32P
[2] = target: T2, SUDV sGP (Sudan virus (SUDV), UniProt Q7T9E0 33-324); assay: filter binding; conditions: protein: commercial; chain copies: 2; label: 5' 32P
T2 sequence: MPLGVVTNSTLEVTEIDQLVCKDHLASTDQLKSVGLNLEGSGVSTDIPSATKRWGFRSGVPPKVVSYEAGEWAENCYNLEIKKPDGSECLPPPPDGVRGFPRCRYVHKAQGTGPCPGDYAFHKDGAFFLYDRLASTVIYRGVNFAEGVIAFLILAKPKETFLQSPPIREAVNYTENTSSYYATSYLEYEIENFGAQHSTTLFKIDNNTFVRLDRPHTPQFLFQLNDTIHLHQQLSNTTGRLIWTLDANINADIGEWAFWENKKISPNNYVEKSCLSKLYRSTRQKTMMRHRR

[3] = target: T3, His-Lcn2 (mouse, UniProt P11672 21-200); assay: filter binding; Nitrocellulose filter capture in PBS at 23-24 C (NA53 in NBB); EIS sensor in PBS with or without 10% serum; conditions: protein: recombinant; tags: His; label: 5' 32P
T3 sequence: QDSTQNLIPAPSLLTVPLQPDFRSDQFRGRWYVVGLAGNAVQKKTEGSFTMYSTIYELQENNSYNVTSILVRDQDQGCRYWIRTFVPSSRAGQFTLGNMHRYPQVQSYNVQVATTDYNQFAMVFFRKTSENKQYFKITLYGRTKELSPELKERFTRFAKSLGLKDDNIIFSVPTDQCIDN

[4] = target: T1, EBOV sGP; assay: electrochemical impedance (NAAO sensor); 10% human serum; conditions: protein: recombinant; tags: C-terminal thrombin site + 6xHis; chain copies: 2
[5] = target: T2, SUDV sGP; assay: electrochemical impedance (NAAO sensor); PBS; same affinity as EBOV sGP; conditions: protein: commercial; chain copies: 2
[6] = target: NGAL (human, UniProt P80188 21-198); assay: filter binding; with or without 10 mM DTT, no effect; NBB buffer; conditions: protein: recombinant; label: 32P

B1: 70SGP2A (ssDNA)
DNA: GCCTGTTGTGAGCCTCCTGTCGAACAACCACTCATATCTACTACATGACTTGCTCCATTCTGTTCTTTCT
Binder B1 has a Kd [1] of 27 ± 15 nM.

B2: 6022 (ssDNA)
DNA: GCCTGTTGTGAGCCTCCTGTCGAACCCTATCTTGTTCATGCTATTCTCAATATTTTCGGTTCACTTACCGTCTGCCTTTGAGCGTTTATTCTTGTCTCCC
For B2, the Kd [1] was ~23 nM.

B3: 6020 (ssDNA)
DNA: GCCTGTTGTGAGCCTCCTGTCGAACATACCGTTCCACCCACATTTCAACCTTCATCCATCCTATTATTAGCCCACTCTTGAGCGTTTATTCTTGTCTCCC
B3: no binding [1].

B4: 6012 (ssDNA)
DNA: GCCTGTTGTGAGCCTCCTGTCGAACGTATTTCTTGCTTCCTTCCTTGCCGCGCACATTGCAGTATAAGTACCTGTCGTTGAGCGTTTATTCTTGTCTCCC
B4 gave a Kd [2] of 151 ± 44 nM and a Kd [1] of 27 ± 12 nM.

B5: 6011 (ssDNA)
DNA: GCCTGTTGTGAGCCTCCTGTCGAACAACCACTCATATCTACTACATGACTTGCTCCATTCTGTTCTTTCTCTACGCATTGAGCGTTTATTCTTGTCTCCC
In the case of B5, the Kd [2] is reported as 165 ± 44 nM, the Kd [1] is reported as 8.5 ± 3.2 nM and the binding result [3] is reported as “no binding”.

B6: 5'thio-6011 (ssDNA)
DNA: B5 DNA
modifications: 5' thiol
With B6 the Kd [4] was 2.2 ± 0.75 nM and the binding result [5] was “binds”.

B7: NA53 (ssDNA)
DNA: AGCAGCACAGAGGTCAGATGCCGTGCGGATGTACAGGGACTTGGATAGTTTCTGACCTATGCGTGCTACCGTGAA
B7: binds [6].
